# Test results from US20110135657A1 (published 2011).
# Legend:
# [1] = biological target: T1, denatured human FGFR1c (lysate of CHO cells stably expressing FGF21 receptor, non-reducing SDS-PAGE, blotted) (human, UniProt P11362 22-822); assay: Western blot of CHO/FGF21 receptor lysate, non-reducing SDS-PAGE (denatured protein)
# T1 construct: DENATURED protein on a Western blot, not the native fold; also called denatured FGFR1c; denatured receptor proteins
# Experimental: 20 μl of cell lysate was loaded per lane on adjacent lanes separated with a molecular weight marker lane on 4-20% SDS-PAGE gels. Following electrophoresis, the gels were blotted onto 0.2μ nitrocellulose filters. The blots were treated with Tris-buffered saline/Triton-X (TBST) plus 5% non-fat milk (blocking buffer) for 30 minutes. The blots were then cut along the molecular weight marker lanes. […] Blots were incubated with the antibodies for one hour at room temperature, followed by three washes with TBST+1% milk. The blots were then probed with anti-human or anti-goat IgG-HRP secondary antibodies for 20 min. Blots were given three 15 min. washes with TBST followed by treatment with Pierce Supersignal West Dura developing reagent (1 min.) and exposure to Kodak Biomax X-ray film.
# [2] = biological target: T2, human FGF21 receptor (FGF21R): full length human FGFR1c and full length human β-Klotho co-expressed at the … (human, UniProt P11362 22-822; Q86Z14 53-1044); assay: cell-based or functional assay
# [3] = biological target: T3, soluble human β-Klotho (Biacore, Example 8) (human, UniProt Q86Z14 53-996, limits assumed); assay: Biacore competition binning; test antibody injected over soluble receptor captured on immobilized 24H11, 17D8 or 1A2.1
# T3 construct: also called soluble β-Klotho
# Excerpt: (§1) Soluble human FGFR1c/β-Klotho ECD-Fc complex or β-Klotho was then captured on the immobilized antibody surfaces.
# [4] = biological target: T2, human FGF21 receptor (FGF21R): full …; assay: cell-based or functional assay; remark: listed apart in the source
# [5] = biological target: T4, His-tagged human recombinant β-Klotho (human, UniProt Q86Z14 53-997, limits assumed); assay: Biacore, 100 nM mAb over His-tagged human β-Klotho captured on anti-His antibody
# T4 construct: also called β-Klotho captured on anti-His; human β-Klotho; not shown: His tag
# Experimental: Briefly, mouse anti-His antibody (Qiagen, Valencia, Calif.) was immobilized on a CM5 chip using amine coupling reagents (General Electronics, Piscataway, N.J.). His-tagged human recombinant β-Klotho was captured on the second flow cell to ˜100RU. The first flow cell was used as a background control. 100 nM mAbs were diluted in PBS plus 0.1 mg/ml BSA, 0.005% P20 and injected over the β-Klotho captured on anti-His antibody surface. For kinetic measurement, 0.78-100 nM mAbs diluted in PBS plus 0.1 mg/ml BSA, 0.005% P20 were injected over the β-Klotho surface.
# [6] = biological target: T5, soluble human FGFR1c/β-Klotho ECD-Fc complex (human); assay: Biacore, antibody immobilized on the sensor chip
# T5 construct: Both entries start at residue 1 of the precursors; also called soluble FGF21R; soluble FGF21R-Fc
# Excerpt: as §1
# T1 sequence (P11362 22-822 limits assumed): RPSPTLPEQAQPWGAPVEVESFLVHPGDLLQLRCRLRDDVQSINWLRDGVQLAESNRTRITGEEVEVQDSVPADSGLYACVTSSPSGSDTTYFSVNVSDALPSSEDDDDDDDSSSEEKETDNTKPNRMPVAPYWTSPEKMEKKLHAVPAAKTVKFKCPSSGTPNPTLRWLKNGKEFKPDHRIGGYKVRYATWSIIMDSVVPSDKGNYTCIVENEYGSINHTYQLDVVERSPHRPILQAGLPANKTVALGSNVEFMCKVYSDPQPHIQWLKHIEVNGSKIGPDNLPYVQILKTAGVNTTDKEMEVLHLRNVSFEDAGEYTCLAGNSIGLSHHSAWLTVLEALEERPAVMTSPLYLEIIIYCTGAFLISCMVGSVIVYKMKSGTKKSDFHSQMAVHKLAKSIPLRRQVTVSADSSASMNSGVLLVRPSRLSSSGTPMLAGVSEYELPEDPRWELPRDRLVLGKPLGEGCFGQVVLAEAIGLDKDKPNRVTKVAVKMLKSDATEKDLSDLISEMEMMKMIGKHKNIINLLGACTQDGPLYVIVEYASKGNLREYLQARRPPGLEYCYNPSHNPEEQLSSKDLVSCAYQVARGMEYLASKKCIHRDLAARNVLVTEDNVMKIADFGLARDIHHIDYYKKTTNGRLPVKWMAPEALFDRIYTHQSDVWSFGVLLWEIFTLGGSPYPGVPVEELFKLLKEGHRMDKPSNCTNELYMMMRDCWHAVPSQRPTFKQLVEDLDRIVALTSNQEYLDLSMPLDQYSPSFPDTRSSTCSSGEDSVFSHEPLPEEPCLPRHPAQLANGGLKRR
# T5 sequence (chain, as listed by the source limits assumed, chain 1 of 2): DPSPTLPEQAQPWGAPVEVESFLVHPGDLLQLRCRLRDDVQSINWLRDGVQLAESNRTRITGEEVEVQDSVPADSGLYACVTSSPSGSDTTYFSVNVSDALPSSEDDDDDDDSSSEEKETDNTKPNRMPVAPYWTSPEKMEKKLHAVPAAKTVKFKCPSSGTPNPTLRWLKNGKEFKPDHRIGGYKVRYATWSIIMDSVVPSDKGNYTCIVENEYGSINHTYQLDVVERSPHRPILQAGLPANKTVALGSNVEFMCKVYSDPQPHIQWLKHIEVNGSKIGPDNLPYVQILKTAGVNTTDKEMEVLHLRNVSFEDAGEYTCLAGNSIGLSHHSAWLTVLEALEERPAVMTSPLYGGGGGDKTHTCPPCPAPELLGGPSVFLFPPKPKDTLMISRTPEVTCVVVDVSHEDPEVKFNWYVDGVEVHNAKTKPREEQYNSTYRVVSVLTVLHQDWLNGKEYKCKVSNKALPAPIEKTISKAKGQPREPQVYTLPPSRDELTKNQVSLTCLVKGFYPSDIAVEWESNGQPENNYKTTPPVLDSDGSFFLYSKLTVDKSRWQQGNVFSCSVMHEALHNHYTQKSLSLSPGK
# T5 sequence (chain, as listed by the source limits assumed, chain 2 of 2): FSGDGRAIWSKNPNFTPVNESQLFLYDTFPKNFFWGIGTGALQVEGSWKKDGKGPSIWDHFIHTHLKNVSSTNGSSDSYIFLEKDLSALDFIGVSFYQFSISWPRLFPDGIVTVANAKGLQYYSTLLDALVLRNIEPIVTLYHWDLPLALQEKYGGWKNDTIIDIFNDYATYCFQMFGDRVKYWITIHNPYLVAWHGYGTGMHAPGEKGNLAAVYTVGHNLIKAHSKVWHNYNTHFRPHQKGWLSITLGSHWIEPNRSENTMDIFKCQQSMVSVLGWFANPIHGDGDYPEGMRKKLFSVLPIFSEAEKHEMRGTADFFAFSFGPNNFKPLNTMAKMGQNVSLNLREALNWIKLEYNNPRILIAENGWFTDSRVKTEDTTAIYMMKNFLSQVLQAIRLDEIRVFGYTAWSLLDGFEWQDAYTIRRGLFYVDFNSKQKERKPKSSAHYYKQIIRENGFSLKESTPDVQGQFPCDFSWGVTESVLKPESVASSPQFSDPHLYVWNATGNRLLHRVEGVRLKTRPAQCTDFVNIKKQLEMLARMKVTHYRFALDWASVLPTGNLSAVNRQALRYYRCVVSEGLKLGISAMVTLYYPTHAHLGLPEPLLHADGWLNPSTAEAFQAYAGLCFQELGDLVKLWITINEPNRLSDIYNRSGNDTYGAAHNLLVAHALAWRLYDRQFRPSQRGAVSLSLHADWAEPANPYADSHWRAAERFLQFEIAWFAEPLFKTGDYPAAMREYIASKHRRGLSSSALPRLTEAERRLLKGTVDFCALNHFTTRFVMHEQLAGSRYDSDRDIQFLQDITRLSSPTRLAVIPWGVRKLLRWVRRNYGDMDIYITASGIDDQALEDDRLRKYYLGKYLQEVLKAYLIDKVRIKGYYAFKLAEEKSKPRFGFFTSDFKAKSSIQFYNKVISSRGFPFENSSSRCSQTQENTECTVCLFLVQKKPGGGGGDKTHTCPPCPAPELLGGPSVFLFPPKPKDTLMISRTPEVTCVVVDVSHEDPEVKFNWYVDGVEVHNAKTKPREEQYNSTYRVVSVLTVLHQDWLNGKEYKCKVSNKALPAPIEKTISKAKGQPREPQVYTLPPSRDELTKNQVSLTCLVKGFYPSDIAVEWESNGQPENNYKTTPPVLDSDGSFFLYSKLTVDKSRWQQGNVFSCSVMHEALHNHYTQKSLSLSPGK
Binder,binding result [1],"Activity (%) = % of FGF21 activity, luciferase reporter, AM-1/D FGFR1c+β-Klotho Luc clone; antibody combined with isotype IgG2k control [2]",binding result [3],"EC50 (nM), Erk-phosphorylation, human adipocyte assay [4]",koff [5],binding result [6]
"20D4 (antibody, human IgG2, kappa, V domains shown, fully human monoclonal antibody; full chains H12/L12; also called 20D4.1) VH: QVQLVQSGAEVKKPGASVKVSCKVSGYTLTDLSMHWVRQAPGKGLEWMGGFDPEDGETIYAQKFQGRITMTEDTSTDTAYMELSSLRSEDTAVYYCASIVVVPAAIQSYYYYYGMGVWGQGTTVTVSS VL: DIQLTQSPSSLSASIGDRVTITCRASQDIRYDLGWYQQKPGKAPKRLIYAASSLQSGVPSRFSGSGSGTEFTLTVSSLQPEDFATYYCLQHNSYPLTFGGGTKVEIER",no binding,12.5 % of FGF21 activity,binds,–,–,–
"22H5 (antibody, human IgG2, lambda, V domains shown, fully human monoclonal antibody; full chains H2/L2; also called 22H5 (WT)) VH: QVTLKESGPVLVKPTETLTLTCTVSGFSLSNARMGVSWIRQPPGKALEWLAHIFSNDEKSYSTSLKSRLTISKDTSKSQVVLTMTNMDPVDTATYYCARILLVGAYYYCGMDVWGQGTTVTVSS VL: SYVLTQPPSVSVAPGQTARITCGGNNIGSQSVHWYQQKPGQAPVLVVYDDSDRPSGIPERFSGSNSGNTATLTISRVEAGDEADYYCQVWDNTSDHVVFGGGTKLTVLG",–,–,–,2.27 nM,0.00031 s⁻¹,–
"22H5 variant, light chain S94A (antibody, human IgG2, lambda, V domains shown, variant chain entry already carries the change; also called #6, P60898.3) VH: QVTLKESGPVLVKPTETLTLTCTVSGFSLSNARMGVSWIRQPPGKALEWLAHIFSNDEKSYSTSLKSRLTISKDTSKSQVVLTMTNMDPVDTATYYCARILLVGAYYYCGMDVWGQGTTVTVSS VL: SYVLTQPPSVSVAPGQTARITCGGNNIGSQSVHWYQQKPGQAPVLVVYDDSDRPSGIPERFSGSNSGNTATLTISRVEAGDEADYYCQVWDNTADHVVFGGGTKLTVLG",–,–,–,1.98 nM,0.00035 s⁻¹,–
"22H5 variant, heavy chain C109S (antibody, human IgG2, lambda, V domains shown, variant chain entry already carries the change; also called #23, P60899.2) VH: QVTLKESGPVLVKPTETLTLTCTVSGFSLSNARMGVSWIRQPPGKALEWLAHIFSNDEKSYSTSLKSRLTISKDTSKSQVVLTMTNMDPVDTATYYCARILLVGAYYYSGMDVWGQGTTVTVSS VL: SYVLTQPPSVSVAPGQTARITCGGNNIGSQSVHWYQQKPGQAPVLVVYDDSDRPSGIPERFSGSNSGNTATLTISRVEAGDEADYYCQVWDNTSDHVVFGGGTKLTVLG",–,–,–,–,0.0003 s⁻¹,–
"22H5 variant, light chain N92Q (antibody, human IgG2, lambda, V domains shown, variant chain entry already carries the change; also called #7, P60897.3) VH: QVTLKESGPVLVKPTETLTLTCTVSGFSLSNARMGVSWIRQPPGKALEWLAHIFSNDEKSYSTSLKSRLTISKDTSKSQVVLTMTNMDPVDTATYYCARILLVGAYYYCGMDVWGQGTTVTVSS VL: SYVLTQPPSVSVAPGQTARITCGGNNIGSQSVHWYQQKPGQAPVLVVYDDSDRPSGIPERFSGSNSGNTATLTISRVEAGDEADYYCQVWDQTSDHVVFGGGTKLTVLG",–,–,–,3.33 nM,0.00052 s⁻¹,–
"12E4 (antibody, human IgG2, kappa, V domains shown, fully human monoclonal antibody; full chains H8/L7; also called 12E4.1) VH: EVQLLESGGGLVQPGGSLRLSCAASRFTFSTYAMSWVRQAPGKGLEWVSGISGSGVSTYYADSVKGRFTISRDNSKNTLYLQMNSLRAEDTAVYYCAKSLIVVIVYALDYWGQGTLVTVSS VL: EIVLTQSPGTLSLSPGERATLSCRASQNFDSNYLAWYQQKPGQAPRLLIYGASSRATGIPDNFSGSGSGTDFTLTISRLEPEDFAMYYCQQYGSSPLTFGGGTKVEIKR",no binding,25.4 % of FGF21 activity,binds,–,–,–

# Results, then the binder that gave them:
binding result [1],"Activity (%) = % of FGF21 activity, luciferase reporter, AM-1/D FGFR1c+β-Klotho Luc clone; antibody combined with isotype IgG2k control [2]",binding result [3],"EC50 (nM), Erk-phosphorylation, human adipocyte assay [4]",koff [5],binding result [6],Binder
no binding,–,–,–,–,–,"18B11.1 (antibody, human IgG2, kappa, V domains shown, fully human monoclonal antibody; full chains H11/L10) VH: EVQLVESGGGLVKPGGSLRLSCAASGFTFSDAWMSWVRQAPGKGLEWVGRIKSKTDGGTTDYAAPVKGRFTISRDDSKNTLYLQMNSLKTEDTAVYFCTSTYSSGWYVWDYYGMDVWGQGTTVTVSS VL: DIVMTQSPLSLPVTPGEPASISCRSSQSLLYYNGFTYLDWFLQKPGQSPHLLIYLGSNRASGVPDRFSGSVSGTDFTLKISRVEAEDVGVYYCMQSLQTPFTFGPGTKVDIKR"
–,–,binds,–,–,binds,"17D8 (antibody, human IgG2, kappa, V domains shown) VH: EVQLLESGGGLVQPGGYLRLSCAASGFTFSTYAMSWVRQAPGKGLEWVSAISGSGVSTYYADSVKGRFTISRDNSKNTLYLQMNSLRAEDTAVYYCAKSLIVVMVYVLDYWGQGTLVTVSS VL: EIVLTQSPGTLSLSPGERATLSCRASQSVSGNYLAWYQQKPGQAPRLLIYGASSRATGIPDRFSGSGSGTDFTLTISRLEPEDFAVYYCQQYGSAPLTFGGGTKVEIKR"
no binding,17.9 % of FGF21 activity,binds,–,–,–,"26H11 (antibody, human IgG2, kappa, V domains shown, fully human monoclonal antibody; full chains H7/L6; also called 26H11.1) VH: EVQLLESGGGLVQPGGYLRLSCAASGFTFSTYAMSWVRQAPGKGLEWVSAISGSGVSTNYADSVKGRFTISRDNSKNTLYLQMNSLRAEDTAVYYCAKSLIVVMVYVLDYWGQGTLVTVSS VL: EIVLTQSPGTLSLSPGERATLSCRASQSVSGNYLAWYQQKPGQAPRLLIYGASSRATGIPDRFSGSGSGTDFTLTISRLEPEDFAMYYCQQYGSSPLTFGGGSKVEIKR"
